Test results: US20090227510A1

Biological target: HLA-A2 (human)
Experiment: HLA-A2 stabilization assay

- HLA-A2 stabilizing ability relative to E39: 0.5 fold of E39
Binder: EIWTFSYKV [J65, variant of FBP epitope E39 (H5→F, Y7→T)]
